Measurements reported in patent US20260070940A1 (Hoffmann-La Roche, published 2026).
Values joined by “and” are separate entries in the source; they are usually repeats but may differ in a detail not shown here. Equal entries are not always repeated.

What was measured:
[1] = target: T1, soluble human Lag3-IgG1-Fc with biotinylated C-terminal Avi-tag (human, biotin on the Avi-tag); assay: A375 MHCII competition ELISA, 3 ug/ml
T1 construct: Lag3 ECD, IEGRMD linker, IgG1 Fc, Avi-tag; also called LAG3-Fc-avi; biotinylated LAG3-Fc

[2] = target: T2, human LAG3 on recombinant CHO cells (human, UniProt P18627 23-525); assay: cell ELISA, CHO-LAG3
T2 construct: whole, on cells; also called Lag3 cells
T2 sequence (looked up): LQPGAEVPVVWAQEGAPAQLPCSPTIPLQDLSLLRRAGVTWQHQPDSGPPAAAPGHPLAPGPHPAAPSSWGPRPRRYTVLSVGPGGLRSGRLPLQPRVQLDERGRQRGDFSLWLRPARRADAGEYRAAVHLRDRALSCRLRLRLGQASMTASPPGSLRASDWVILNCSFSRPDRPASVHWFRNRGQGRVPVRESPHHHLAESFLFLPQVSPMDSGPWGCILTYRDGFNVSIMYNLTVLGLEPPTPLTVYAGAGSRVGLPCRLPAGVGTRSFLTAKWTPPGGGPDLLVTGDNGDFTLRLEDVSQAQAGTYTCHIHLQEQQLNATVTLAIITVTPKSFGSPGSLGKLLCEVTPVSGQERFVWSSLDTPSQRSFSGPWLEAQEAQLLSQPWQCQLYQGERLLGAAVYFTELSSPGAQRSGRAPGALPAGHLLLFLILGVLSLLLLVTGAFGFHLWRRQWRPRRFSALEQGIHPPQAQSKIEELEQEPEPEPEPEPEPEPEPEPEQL

[3] = target: T3, recombinant human LAG3 Fc Chimera Protein (R&D Systems, 2319-L3) (human, UniProt P18627 23-450); assay: ELISA, coated LAG3 Fc
T3 construct: Bought
T3 sequence (looked up): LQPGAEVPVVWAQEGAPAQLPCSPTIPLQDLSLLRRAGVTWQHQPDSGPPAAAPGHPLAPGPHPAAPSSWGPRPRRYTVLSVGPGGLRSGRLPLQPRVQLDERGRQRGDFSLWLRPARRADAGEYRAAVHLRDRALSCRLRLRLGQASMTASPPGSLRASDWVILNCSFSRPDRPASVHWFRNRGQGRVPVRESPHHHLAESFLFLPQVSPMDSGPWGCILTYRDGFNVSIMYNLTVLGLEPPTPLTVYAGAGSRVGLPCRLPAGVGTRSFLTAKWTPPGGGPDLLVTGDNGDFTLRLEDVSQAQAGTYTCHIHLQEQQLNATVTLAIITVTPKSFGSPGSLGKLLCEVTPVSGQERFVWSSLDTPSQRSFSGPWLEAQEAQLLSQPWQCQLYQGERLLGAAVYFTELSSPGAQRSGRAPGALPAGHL

[4] = target: T1, soluble human Lag3-IgG1-Fc with …; assay: A375 MHCII competition ELISA
[5] = target: T3, recombinant human LAG3 Fc Chimera …; assay: SPR, captured antibody, LAG3 Fc analyte
[6] = target: T4, murine FAP avi his, biotinylated (murine, UniProt P97321 27-761, biotin on the avi-tag); assay: SPR, bacterial supernatant;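 further: SPR at 25 °C with biotinylated human or murine FAP captured via neutravidin, aVH-containing bacterial supernatants diluted 1:3 as analyte, 600 s dissociation, blank supernatant without aVH as reference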
T4 construct: also called muFAP; mu FAP

[7] = target: T5, human FAP avi his, biotinylated (human, UniProt Q12884 27-759, biotin on the avi-tag); assay: SPR, bacterial supernatant;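 further: SPR at 25 °C with biotinylated human or murine FAP captured via neutravidin, aVH-containing bacterial supernatants diluted 1:3 as analyte, 600 s dissociation, blank supernatant without aVH as reference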
T5 construct: also called huFAP

[8] = target: T4, murine FAP avi his, biotinylated; assay: SPR, purified aVH, FAP immobilised
[9] = target: T5, human FAP avi his, biotinylated; assay: SPR, purified aVH, FAP immobilised
[10] = target: T3, recombinant human LAG3 Fc Chimera …; assay: SPR, captured aVH-Fc, LAG3 Fc analyte
[11] = target: T6, murine LAG3-Fc antigen (R&D Systems, 3328-L3-050) (murine, UniProt Q61790 24-442); assay: ELISA, murine LAG3-Fc
T6 construct: Bought
T6 sequence (looked up): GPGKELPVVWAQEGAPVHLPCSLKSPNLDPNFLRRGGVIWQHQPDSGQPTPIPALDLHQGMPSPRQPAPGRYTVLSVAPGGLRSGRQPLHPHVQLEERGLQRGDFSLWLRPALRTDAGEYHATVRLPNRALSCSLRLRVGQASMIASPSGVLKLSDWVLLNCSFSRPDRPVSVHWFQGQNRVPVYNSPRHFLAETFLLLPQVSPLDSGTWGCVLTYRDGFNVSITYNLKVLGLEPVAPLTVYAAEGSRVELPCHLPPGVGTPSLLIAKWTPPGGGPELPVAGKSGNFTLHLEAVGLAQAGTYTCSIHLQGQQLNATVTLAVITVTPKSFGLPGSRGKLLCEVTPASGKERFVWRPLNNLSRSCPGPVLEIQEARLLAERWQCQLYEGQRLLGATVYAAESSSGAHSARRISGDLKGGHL

[12] = target: T1, soluble human Lag3-IgG1-Fc with …; assay: SPR, LAG3-Fc immobilised
[13] = target: T1, soluble human Lag3-IgG1-Fc with …; assay: ELISA, supernatant on biotinylated antigen

B1: MDX 25F7 (antibody, V domains shown)
VH: QVQLQQWGAGLLKPSETLSLTCAVYGGSFSDYYWNWIRQPPGKGLEWIGEINHNGNTNSNPSLKSRVTLSLDTSKNQFSLKLRSVTAADTAVYYCAFGYSDYEYNWFDPWGQGTLVTVSS
VL: EIVLTQSPATLSLSPGERATLSCRASQSISSYLAWYQQKPGQAPRLLIYDASNRATGIPARFSGSGSGTDFTLTISSLEPEDFAVYYCQQRSNWPLTFGQGTNLEIK
- % Inhibition [1]: 90.4%
- OD max [2]: 2.06
- EC50 [3]: 0.0031 µg/mL and 0.02 nM
- OD max [3]: 3.39
- IC50 [4]: 0.127 µg/mL and 0.8 nM
- koff [5]: 0.00039 s⁻¹
- t½ [5]: 0.5 h

B2: anti-FAP aVH P049.004 (VHH)
VHH: EVQLVESGGGLVQPGGSLRLSCAASSFNIKDTYIGWVRRAPGKEEELVANIYCNYGYTRYADSVKGRFTISCDTSKNTAYLQMNSLRAEDTAVYYCATSHTRYHYKYWGQGTTVTVSS
- koff [6]: 0.00207 s⁻¹
- koff [7]: 0.00508 s⁻¹
- Kd [8]: 23 nM
- koff [8]: 0.00102 s⁻¹
- kon [8]: 51000 M⁻¹ s⁻¹

B3: anti-FAP aVH P034.090 (VHH)
VHH: EVQLVESGGGLVQPGGSLRLSCAASGFNIKDTCIGWVRRAPGKEEELVANICSSYGHTRYADSVKGRFTISADTSKNTAYLQMNSLRAEDTAVYYCASSYTIYRYSYWGQGTTVTVSS
- koff [6]: 0.0255 s⁻¹
- koff [7]: 0.00107 s⁻¹
- Kd [9]: 0.846 nM
- koff [9]: 0.00046 s⁻¹
- kon [9]: 552000 M⁻¹ s⁻¹

B4: anti-FAP aVH P047.001 (VHH)
VHH: EVQLVESGGGLVQPGGSLRLSCAASGFNIKDTCIGWVRRAPGKEEELVANICGKIGITRYADSVKGRFTISADTSKNTAYLQMNSLRAEDTAVYYCANSYTIVRYDYWGQGTTVTVSS
- koff [6]: 0.0157 s⁻¹
- koff [7]: 0.00542 s⁻¹
- Kd [8]: 24.5 nM
- koff [8]: 0.00784 s⁻¹
- kon [8]: 320000 M⁻¹ s⁻¹
- Kd [9]: 1.15 nM
- koff [9]: 0.00133 s⁻¹
- kon [9]: 1.15e+06 M⁻¹ s⁻¹

B5: 9B4 aVH-Fc, bivalent (PG-LALA) (Fc fusion)
chain: EVQLVESGGGLVQPGGSLRLSCAASGFNIKDTCIGWVRRAPGKGTELVAEICQDIGYTRYADSVKGRFTISADTSKNTAYLQMNSLRAEDTAVYYCAAVEVAEYFEYWGQGTTVTVSS
notes: not shown: linker and human IgG1 Fc (PG-LALA)
- % Inhibition [1]: 95.5%
- EC50 [2]: 0.0288 µg/mL and 0.4 nM
- OD max [2]: 1.3
- EC50 [3]: 0.0194 µg/mL and 0.3 nM
- OD max [3]: 1.2
- koff [10]: 0.00019 s⁻¹
- t½ [10]: 1.02 h
- IC50 [4]: 0.0762 µg/mL and 1 nM
- binding result [11]: no binding

B6: LAG3 9B4 aVH (VHH)
VHH: EVQLVESGGGLVQPGGSLRLSCAASGFNIKDTCIGWVRRAPGKGTELVAEICQDIGYTRYADSVKGRFTISADTSKNTAYLQMNSLRAEDTAVYYCAAVEVAEYFEYWGQGTTVTVSS
- Kd [12]: 86 nM
- koff [12]: 0.00314 s⁻¹
- kon [12]: 36500 M⁻¹ s⁻¹

B7: SEQ ID NO 95 (VHH)
VHH: EVQLVESGGGLVQPGGSLRLSCAASGFNIKYQCIGWVRRAPGKGTELVAEICSYDGYTRYADSVKGRFTISADTSKNTAYLQMNSLRAEDTAVYYCAAEESVEGFIYWGQGTTVTVSS
notes: also called LAG3-specific aVH
- binding result [13]: binds

B8: SEQ ID NO 85 (VHH)
VHH: EVQLVESGGGLVQPGGSLRLSCAASGFNIKDTCIGWVRRAPGKGTELVAEICQDIGYTRYADSVKGRFTISADTSKNTAYLQMNSLRAEDTAVYYCAGEEGATNFKYWGQGTTVTVSS
notes: also called LAG3-specific aVH
- binding result [13]: binds

B9: SEQ ID NO 77 (VHH)
VHH: EVQLVESGGGLVQPGGSLRLSCAASGFNIKDTCIGWVRRAPGKGTELVAEICTDIGYTRYADSVKGRFTISADTSKNTAYLQMNSLRAEDTAVYYCAAGEGSSGFHYWGQGTTVTVSS
notes: also called LAG3-specific aVH
- binding result [13]: binds

B10: SEQ ID NO 79 (VHH)
VHH: EVQLVESGGGLVQPGGSLRLSCAASGFNIKDTCIGWVRRAPGKGTELVAEICQDIGYTRYADSVKGRFTISADTSKNTAYLQMNSLRAEDTAVYYCAADESVDNFKYWGQGTTVTVSS
notes: also called LAG3-specific aVH
- binding result [13]: binds

B11: SEQ ID NO 91 (VHH)
VHH: EVQLVESGGGLVQPGGSLRLSCAASGFNIKDTCIGWVRRAPGKGTELVAEICHDIGYTRYADSVKGRFTISADTSKNTAYLQMNSLRAEDTAVYYCAAEEHVASFEYWGQGTTVTVSS
notes: also called LAG3-specific aVH
- binding result [13]: binds

B12: SEQ ID NO 89 (VHH)
VHH: EVQLVESGGGLVQPGGSLRLSCAASGFNIKDTCIGWVRRAPGKGTELVAEICTDAGYTRYADSVKGRFTISADTSKNTAYLQMNSLRAEDTAVYYCAASESPSGFRYWGQGTTVTVSS
notes: also called LAG3-specific aVH
- binding result [13]: binds

B13: SEQ ID NO 97 (VHH)
VHH: EVQLVESGGGLVQPGGSLRLSCAASGFNIKDTCIGWVRRAPGKGTELVAEICDDIGYTRYADSVKGRFTISADTSKNTAYLQMNSLRAEDTAVYYCASQEHQWSFKYWGQGTTVTVSS
notes: also called LAG3-specific aVH
- binding result [13]: binds

B14: P10D1 aVH-Fc, bivalent (PG-LALA) (Fc fusion)
chain: EVQLVESGGGLVQPGGSLRLSCAASGFSIKDTCIAWVRRAPGKGTELVAEICEDIGYTRYADSVKGRFTISADTSKNTAYLQMNSLRAEDTAVYYCAAKEAGVGFDYWGQGTTVTVSS
notes: as for B5
- % Inhibition [1]: 93.4%
- EC50 [2]: 0.029 µg/mL and 0.4 nM
- OD max [2]: 1.2
- EC50 [3]: 0.113 µg/mL and 1.5 nM
- OD max [3]: 0.9
- koff [10]: 0.00011 s⁻¹
- t½ [10]: 1.7 h
- IC50 [4]: 0.0933 µg/mL and 1.2 nM
- binding result [11]: no binding

B15: SEQ ID NO 83 (VHH)
VHH: EVQLVESGGGLVQPGGSLRLSCAASGFNIKDTCIGWVRRAPGKGTELVAEICEDIGYTRYADSVKGRFTISADTSKNTAYLQMNSLRAEDTAVYYCAANEHSVGFNYWGQGTTVTVSS
notes: also called LAG3-specific aVH
- binding result [13]: binds

B16: LAG3 P11A2 aVH (VHH)
VHH: EVQLVESGGGLVQPGGSLRLSCAASSFNIKDTYIGWVRRAPGKGTELVAEIACHEGTTRYADSVKGRFTISCDTSKNTAYLQMNSLRAEDTAVYYCANTEYDDIFDYWGQGTTVTVSS
- Kd [12]: 55 nM
- koff [12]: 0.0138 s⁻¹
- kon [12]: 251000 M⁻¹ s⁻¹
